Data from article PMC9986870.

Target: Alexa Fluor 488 labeled α-synuclein (UniProt P37840)
Test: MST; apparent; constant 50 nM αS-AF488, dilution series of 16 HSA concentrations (50 μM to 6.25 nM); 10 mM Na2HPO4, 1.8 mM KH2PO4, 137 mM NaCl, 2.7 mM KCl, pH 7.4; Monolith NT.115, LED power 20%, MST power 20, 40 and 80%, data normalised and averaged

human serum albumin (from UniProt P02768 25-609) (natural protein)
Kd: 300 nM
